Assays:
[1] = biological target: RHT1-GRAS (truncated DELLA protein carrying only the C-terminal GRAS domain), yeast hybrid fusion (wheat); assay: yeast three-hybrid; quantitative alpha-gal Y3H assay; BD and AD fusions with a third protein expressed or not expressed; n = 12
[2] = biological target: GROWTH-REGULATING FACTOR 4 (GRF4), yeast hybrid fusion (wheat); assay: as above

| Substance | percent reduction of the PLATZ1-DELLA interaction with GRF4 as the third protein [1] [%] | fold stronger interaction than between PLATZ and DELLA [2] [fold] |
| --- | --- | --- |
| GROWTH-REGULATING FACTOR 4 (GRF4), yeast hybrid fusion (natural protein) | 74 |  |
| RHT1-GRAS (truncated DELLA protein carrying only the C-terminal GRAS domain), yeast hybrid fusion (domain or fragment) |  | > 20 |
